Source: US20050010028A1 (KEIO UNIVERSITY, published 2005)
Each block holds one binder with its values, some of them ahead of it.

B1: Rhodamine green-labeled c-Fos (other, UniProt P01101 118-211, looked up)
chain: GRAQSIGRRGKVEQLSPEEEEKRRIRRERNKMAAAKCRNRRRELTDTLQAETDQLEDEKSALQTEIANLLKEKEKLEFILAAHRPACKIPDDLG
modifications: C-terminus joined through puromycin to a rhodamine green modifying agent that also carries biotin or iminobiotin (Modifying agent 22 or 23; which one in the FCCS sample is not stated)
notes: also called Rh-Fos; rhodamine green-modified c-fos; not shown: T7 tag at the N-terminus; C-terminal polyhistidine tag

Legend:
[1] = target: T1, Cy5-labeled c-Jun (mouse, UniProt P05627 216-318, C-terminus joined through puromycin to a Cy5 modifying agent that also carries biotin or iminobiotin (Modifying agents 24-26; Modifying agent 25 in FIGS. 14 and 15; the agent used in the FCCS sample …); experiment: fluorescence cross-correlation spectroscopy in solution, 10 nM each of the two labelled proteins and AP-1 double-stranded DNA
T1 construct: also called Cy5-Jun; Cy5-modified c-Jun; not shown: T7 tag at the N-terminus; C-terminal polyhistidine tag
Method: (§1) Intermolecular interactions were analyzed by fluorescence cross-correlation spectroscopy using fluorescence-labeled c-Fos and c-Jun as well as AP-1 sequence double-stranded DNA. DNA and the modified proteins (at a final concentration of 10 nM each) were mixed. 10 μl of this sample was applied to an 8-well glass chamber (Nunc), and fluorescence cross-correlations were measured by using a fluorescence correlation spectrometer, ConfoCor2 (Car1 Zeiss). […] Based on the above, it was confirmed that proteins labeled with fluorescence according to the present invention could be used to detect protein interactions by using a fluorescence cross-correlation spectroscopy and further could be utilized for convenient and quick measurement of dissociation constant.

[2] = target: B1; experiment: fluorescence cross-correlation spectroscopy in solution, Cy5-Fos + Rh-Fos + AP-1 DNA
Method: as §1

[3] = target: T2, Fos modified with TAMRA-dC-puromycin (Modifying agent 19) (mouse, UniProt P01101 118-211, C-terminus joined to TAMRA-dC-puromycin (Modifying agent 19)); experiment: protein microarray: STA-Fos on a biotin plate, labelled Fos in solution, fluorescence scan
T2 construct: also called C-terminal fluorescence-labeled Fos; Fos protein having 12 His tags

T1 sequence (P05627 216-318): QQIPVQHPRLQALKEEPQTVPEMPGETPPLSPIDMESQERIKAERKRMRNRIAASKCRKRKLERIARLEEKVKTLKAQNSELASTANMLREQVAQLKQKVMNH

Binder: B1
Kd [1]: ~10 nM

binding result [2]: no binding (tested: 10 nM each)
B2: Cy5-labeled c-Fos (other, UniProt P01101 118-211, looked up)
chain: GRAQSIGRRGKVEQLSPEEEEKRRIRRERNKMAAAKCRNRRRELTDTLQAETDQLEDEKSALQTEIANLLKEKEKLEFILAAHRPACKIPDDLG
modifications: C-terminus joined through puromycin to a Cy5 modifying agent that also carries biotin or iminobiotin (Modifying agents 24-26; Modifying agent 25 in FIGS. 14 and 15; the agent used in the FCCS sample is not stated)
notes: also called Cy5-Fos; not shown: T7 tag at the N-terminus; C-terminal polyhistidine tag

binding result [3]: no binding
B3: streptavidin-fused Fos protein (other, UniProt P01101 118-211, looked up)
chain: GRAQSIGRRGKVEQLSPEEEEKRRIRRERNKMAAAKCRNRRRELTDTLQAETDQLEDEKSALQTEIANLLKEKEKLEFILAAHRPACKIPDDLG
notes: From plasmid pSP6-STA-Fos (pET20b backbone), spotted as translation solution on a biotin-coated slide; also called STA-Fos; STA-Fos(F); not shown: T7 tag at the N-terminus of streptavidin; streptavidin, gene amplified from the Streptomyces avidinii genome
